# Results: the DeepSol protein solubility set
# Test: soluble on expression in E. coli; label from the status in PepcDB or PDB records
row,Sequence,soluble on expression in E. coli
1,SQVDVKDCANHEIKKVLVPGCHGSEPCIIHRGKPFQLEAVFEANQNTKTAKIEIKASIDGLEVDVPGIDPNACHYMKCPLVKGQQYDIKYTWNVPKIAPKSENVVVTVKVMGDDGVLACAIATHAKIRD,soluble
2,SRKMSLMRKEKLRGKAIKYVPASLLTKEFYSEAFTLNVDVIENIPKEFITAKMCEEAIQKNRHNIAYIPFEYRTEKIITEAIKNNGLALSEIDDTQKTEQLCLLAIRNHGGALQYVPYQLRTPEICLEAVKNFNGALNYVPEHIRTADFHTEYLIEDDWIDELLAGYDERLLKAVRKDARNLAAIPEEQRTYELCVEALLNNNDSDSVLKYVPDEFKTPEFYRNCVRINNKHFKDIPDSMKSYELCFEAVTNSPYALEYVPQRLLTKEIILAALSQKSMAVLDYVPPEFMTEEVYTTAFKNDIFGDIAYIFPEEYRTKENYLAMLGNPYSVCSTIIKTMPDYLKTDDFLVAAAKLRDEMLEYVPEYLLTQELCYELVKANGYALRITPPQFITEALCRTAVESDPRALCYVPEEFRTHEICDLALQKDMGLIKYAPADFAITADLCRRAVEADADAINQIPEQFRTEELWRIAVSEYGRLLEDLPASLMSEEFCRLAVANDGRALEFVPDKNKTKDVCFEAVRNSGHALKFVDVSKLTKEEYSKLCRLAFER,not soluble
3,SRLEGWLSLPVRNNTKKFGWVKKYVIVSSKKILFYDSEQDKEQSNPYMVLDIDKLFHVRPVTQTDVYRADAKEIPRIFQILYANEGISSAKNLLLLANSTEEQQKWVSRLVKKIPKK,soluble
4,SRLSRIDLAVDDFHGLFGREYAKKAYSDDAFRTARAGRAPNGGERLVSEPNGKIINESFEVGSRESRIYWRIYNKAAQLGLDMHWFRNEVELKDMPIDVLLNIEGYFAGLCAYSASIINSLPVKVVTKKRQVALDIHSRIKWARRQVGKTLFDISKHFGGDLERVFGALISKEIHDDSLNLPDSYM,not soluble
5,SRNFSVFERFSKAFKDHPSLTRILVVSTISGGGLIAYSEANASYGANGGAVVETGTKKKKVVLLGTGWAGTSFLKNLNNSQYEVQIISPRNYFAFTPLLPSVTCGTVEARSVVEPIRNIGRKNVDTSYLEAECFKIDPASKKVYCRSKQGLSSNGKKEFSVDYDYLVIATGAQSNTFNIPGVEENCHFLKEVEDAQRIRKTVIDSFEKASLPELSDEERKRILHFVVVGGGPTGVEFAAELHDFVTEDLVSLYPRAKGSVRITLLEAADHILTMFDKRITEFAEEKFSRDGIDVKLGSMVTKVNEKDISAKTKGGEVSSIPYGMIVWSTGIGTRPVIKDFMKQIGQGNRRALATDEWLRVEGTDNIYALGDCATINQRKVMEDVSAIFSKADKDKSGTLTLKEFQEAMDDICVRYPQVELYLKSKRMRGIADLLKEAETDDVSKNNIELKIEEFKSALSQVDSQVKFLPATAQVAAQQGAYLAKCFDRMEECEKSPEGPIRMRGEGRHRFRPFRYRHLGQFAPLGGEQTAAQLPGDWVSIGHSSQWLWYSVYASKQVSWRTRVLVVSDWMRRFIFGRDSSSI,soluble
6,SRQWSQTLCEMSESEDDDIPQLSSHTLAALQEFYAEQKQSVNPRGDDKYNVGVIEENWQLSQFWYSQDTALRLAREAIDAAGEGGRIACVSAPSVYQKLRELCREDSSVYIFEYDRRFAIYGDEFIFYDYNHPLELPERIAAHSFDLVVADPPYLSEECLRKTSETIQFLTRGKILLCTGAIMEEQAAQLLGVKMCKFIPEHSRNLANEFRCYTNYDSGLDCEA,soluble
7,SSEAKKGHVLFFPYPLQGHINPMIQLAKRLSKKGITSTLIIASKDHREPYTSDDYSITVHTIHDGFFPHEHPHAKFVDLDRFHNSTSRSLTDFISSAKLSDNPPKALIYDPFMPFALDIAKDLDLYVVAYFTQPWLASLVYYHINEGTYDVPVDRHENPTLASFPGFPLLSQDDLPSFACEKGSYPLLHEFVVRQFSNLLQADCILCNTFDQLEPKVVKWMNDQWPVKNIGPVVPSKFLDNRLPEDKDYELENSKTEPDESVLKWLGNRPAKSVVYVAFGTLVALSEKQMKEIAMAISQTGYHFLWSVRESERSKLPSGFIEEAEEKDSGLVAKWVPQLEVLAHESIGCFVSHCGWNSTLEALCLGVPMVGVPQWTDQPTNAKFIEDVWKIGVRVRTDGEGLSSKEEIARCIVEVMEGERGKEIRKNVEKLKVLAREAISEGGSSDKKIDEFVALLT,soluble
8,SSFQGPLDATVVVNLQSPTLEEKNEFPEDLRTELMQTLGSYGTIVLVRINQGQMLVTFADSHSALSVLDVDGMKVKGRAVKI,soluble
9,SSHGIGDALGSDWPGREPRATDNRGQYLKGESWVSGRPGHPKLREVGFLRGEPPSAGPKGLGTWSELSHRYFELGQLPYAYPYYKVLPEGELRCVSLDRFNPGLSEETVEDEKTLKFFRWSADSRGVTGSAIFQISKSLMP,soluble
10,SSLCEDMLLCNYRKCRIKLSGYAWVTACSHIFCDQHGSGEFSRSPAICPACNSTLSGKLDIVRTELSPSEEYKAMVLAGLRPEIVLDISSRALAFWTYQVHQERLYQEYNFSKAEGHLKQMEKIYTQQIQSKDVELTSMKGEVTSMKKVLEEYKKKFSDISEKLMERNRQYQKLQGLYDSLRLRNITIANHEGTLEPSMIAQSGVLGFPLGNNSKFPLDNTPVRNRGDGDGDFQFRPFFAGSPTAPEPSNSFFSFVSPSRELEQQQVSSRAFKVKRI,not soluble
11,SSLENVVYNLVNAGHFDGRAGELPCAVIGEKVIAKIQNEDVVVFKNNTPFPTNVAVELFAKRSIRPHPELKLFRNLNIDVCWSHVLWDYAKDSVFCSSTYKVCKYTDLQCIESLNVLFDGRDNGALEAFKKCRNGVYINTTKIKSLSMIKGPQRADLNGVVVEKVGDSDVEFWFAVRKDGDDVIFSRTGSLEPSHYRSPQGNPGGNRVGDLSGNEALARGTIFTQSRLLSSFTPRSEMEKDFMDLDDDVFIAKYSLQDYAFEHVVYGSFNQKIIGGLHLLIGLARRQQKSNLVIQEFVTYDSSIHSYLITDENSGSSKSVCTVIDLLLDDFVDIVKSLNLKCVSKVVNVNVDFKDFQFMLWCNEEKVMTF,soluble
12,SSNEHGPVKRSSQSTLERSEQQIRAASSLEELLRITHSEDWKLWRCRLRLKSFTSMDSRSASHRSTRFAATFYDIETLKVIDEEWQRTQCSPRETCVEVASELGKSTNTFFKPPCVNVFRCGGCCNEESLICMNTSTSYISKQLFEISVPLTSVPELVPVKVANHTGCKCLPTAPRHPYSIIRRSIQIPEEDRCSHSKKLCPIDMLWDSNKCKCVLQEENPLAGTEDHSHLQEPALCGPHMMFDEDRCECVCKTPCPKDLIQHPKNCSCFECKESLETCCQKHKLFHPDTCSCEDRCPFHTRPCASGKTACAKHCRFPKEKRAAQGPHSRKNP,soluble
13,SSSISELYDVTWEEMRDKLRKWREENYRNSEQIVDVGEELINEHASKLGDDIWIIYEQVMIAALDCSRDDLAWSCLQELKRQFPDSHRVKRLAGMRLEALERYDDANKLYDSILQDDPTNTAARKRKICILRAQGKSSEAIRELNEYLEQFVGDQEAWHELSELYINEHDYAKAAFCLEELMMTNPHNHLYCEQYAEVKYTQGGLENLELARKYFAQALKLNNRNMRALFGLYMSASHIAASPKVSAKVKKDNVKYAAWAAAQISRAYQMAGRGKKENKCSVKAVEEMLESLQITMS,soluble
14,STDDKDVLRDVWFGRIPTCFTLYQDEITEREAEPYYLLLPRVSYLTLVTDKVKKHFQKVMRQEDVSEIWFEYEGTPLKWHYPIGLLFDLLASSSALPWNITVHFKSFPEKDLLHCPCKDAVEAHFMSCVKEADALKHKSQVINEMQRKDHKQLWMGLQNDLTSFGPSTGNSWNTLQKKMDFVISLLEYIRPQLNGLSFRSCSVLWPQMDSCIPLEIS,soluble
15,STDVHRRFLQLLMTHGVLEEWDVKRLQTHCYKVHDRSATVDKLEDFINNINSVLESLYIEIKRGVTEDDGRPIYALVNLATTSISKMATDFAENELDLFRKALELIIDSETGFASSTNILNLVDQLKGKKMRKKEAEQVLQKFVQNKWLIEKEGEFTLHGRAILEMEQYIRETYPDAVKICNICHSLLIQGQSCETCGIRMHLPCVAKYFQSNAEPRCPHCNDYWPHEIPKVFDPEKERESGVLKSNKKSLRSRQH,soluble
16,STMSGYLYRSKGSKKPWKHLWFVIKNKVLYTYAASEDVAALESQPLLGFTVTLVKDENSESKVFQLLHKGMVFYVFKADDAHSTQRWIDAFQEGTV,soluble
